# B1: A49-F3′-TriNKET-Trastuzumab (bispecific antibody, human IgG1)
# heavy: EVQLVESGGGLVKPGGSLRLSCAASGFTFSSYSMNWVRQAPGKGLEWVSSISSSSSYIYYADSVKGRFTISRDNAKNSLYLQMNSLRAEDTAVYYCARGAPMGAAAGWFDPWGQGTLVTVSSASTKGPSVFPLAPSSKSTSGGTAALGCLVKDYFPEPVTVSWNSGALTSGVHTFPAVLQSSGLYSLSSVVTVPSSSLGTQTYICNVNHKPSNTKVDKKVEPKSCDKTHTCPPCPAPELLGGPSVFLFPPKPKDTLMISRTPEVTCVVVDVSHEDPEVKFNWYVDGVEVHNAKTKPREEQYNSTYRVVSVLTVLHQDWLNGKEYKCKVSNKALPAPIEKTISKAKGQPREPQVCTLPPSRDELTENQVSLTCLVKGFYPSDIAVEWESNGQPENNYKTTPPVLDSDGSFFLYSWLTVDKSRWQQGNVFSCSVMHEALHNHYTQKSLSLSPG
# chain: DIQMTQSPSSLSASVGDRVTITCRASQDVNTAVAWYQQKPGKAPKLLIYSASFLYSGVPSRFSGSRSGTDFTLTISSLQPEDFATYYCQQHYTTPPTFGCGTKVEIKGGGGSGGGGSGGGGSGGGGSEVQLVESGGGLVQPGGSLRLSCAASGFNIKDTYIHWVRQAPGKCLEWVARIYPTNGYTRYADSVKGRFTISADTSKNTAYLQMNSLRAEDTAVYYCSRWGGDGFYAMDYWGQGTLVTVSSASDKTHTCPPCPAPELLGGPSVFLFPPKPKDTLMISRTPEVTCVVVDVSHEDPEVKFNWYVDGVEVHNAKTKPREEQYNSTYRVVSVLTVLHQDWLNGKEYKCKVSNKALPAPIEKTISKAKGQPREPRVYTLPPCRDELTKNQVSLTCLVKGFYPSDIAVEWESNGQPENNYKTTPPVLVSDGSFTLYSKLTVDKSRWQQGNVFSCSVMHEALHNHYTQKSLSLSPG
# light: DIQMTQSPSSVSASVGDRVTITCRASQGISSWLAWYQQKPGKAPKLLIYAASSLQSGVPSRFSGSGSGTDFTLTISSLQPEDFATYYCQQGVSFPRTFGGGTKVEIKRTVAAPSPPSDEQLKSGTASVVCLLNNFYPREAKVQWKVDNALQSGNSQESVTEQDSKDSTYSLSSTLTLSKADYEKHKVYACEVTHQGLSSPVTKSFNRGEC
# Target: HER2 (human, UniProt P04626 23-1255)
# Experiment: cell-based or functional assay
binder,measurement,value
B1,EC50 in KHYG-1-CD16V cell killing of Hs578T cells (DELFIA cytotoxicity assay),376 pM
same,EC50 in KHYG-1-CD16V cell-mediated cytolysis of BT-20 cells (DELFIA cytotoxicity assay),1160 pM
same,EC50 in NK cell-mediated killing of MCF-7 cells (DELFIA cytotoxicity assay),878 pM
same,EC50 in NK cell-mediated lysis of ZR75-1 cells (DELFIA cytotoxicity assay),43 pM
same,"EC50 in enhancing NK cell-mediated cytolysis of SKBR-3 cells (DELFIA cytotoxicity assay, 3 healthy donors)",8 pM
same,EC50 in inducing NK cell-mediated lysis of 786-0 cells (DELFIA cytotoxicity assay),638 pM
same,EC50 in triggering NK cell-mediated killing of H661 cells (DELFIA cytotoxicity assay),54 pM
same,fold higher potency than trastuzumab in triggering NK cell-mediated killing of SKBR-3 cells,2.5 fold

# Source: patent US20230416402A1 (DRAGONFLY THERAPEUTICS, published 2023)
